Usually stoichiometry N stands for a count of units in the complex or per binding partner.

The target in the test is persulfide dioxygenase from Pseudomonas aeruginosa (PaPDO) (Pseudomonas aeruginosa). Description: SEC; Superdex 75 10/300, 20 mM Tris-HCl pH 8.0, 200 mM NaCl, 1 mL/min; calibrated with protein standards; elution at 10.8 mL.

As to “persulfide dioxygenase from Pseudomonas aeruginosa (PaPDO) (enzyme)”, the stoichiometry N came out at 2.

For the origin of these results see publication PMC12856154.
